± gives the uncertainty stated by the source.
B1: Kinesin-like protein KIF16B, residues 1213 to 1273; numbered along this chain, Q96L93 (parent)
chain: ETWTVFRRYSRFREMHKTLKLKYAELAALEFPPKKLFGNKDERVIAERRSHLEKYLRDFFS
B2: Zinc finger MYM-type protein 3, residues 405 to 444; numbered along this chain, Q14202 (parent)
chain: DATRCSICQKTGEVLHEVSNGSVVHRLCSDSCFSKFRANK

Variants of: B1
Test: abundance fitness (aPCA) (normalised: wild type 0, dead -1); higher = more abundant; growth selection in yeast, the domain comes from the species named
Settings: Homo sapiens

Variant	abundance fitness
H16T	0.144 ± 0.058
H16Q	-0.194 ± 0.083
H16E	-0.842 ± 0.27
H16A	0.135 ± 0.047
H16C	0.016 ± 0.12
H16M	0.311 ± 0.061
H16F	-0.044 ± 0.14
H16V	0.342 ± 0.053
H16Y	0.167 ± 0.089
H16L	0.379 ± 0.039
H16K	0.062 ± 0.17
H16W	0.534 ± 0.051
H16R	-0.073 ± 0.046
H16N	-0.353 ± 0.31
H16S	-0.083 ± 0.058
H16I	0.452 ± 0.11
H16D	-0.835 ± 0.18
K17C	-0.483 ± 0.16
K17L	-1 ± 0.22
K17W	-0.783 ± 0.29
K17F	-0.685 ± 0.27
K17Q	-0.452 ± 0.12
K17T	-0.489 ± 0.14
K17E	-0.311 ± 0.095
K17R	-0.199 ± 0.057

Variant	abundance fitness
K17M	-0.343 ± 0.1
K17V	-0.225 ± 0.13
K17Y	-0.607 ± 0.13
K17A	-0.325 ± 0.13
L19S	-1.11 ± 0.19
L19P	-1.02 ± 0.24
L19C	-0.603 ± 0.22
L19F	-0.146 ± 0.11
L19G	-0.977 ± 0.14
L19D	-1.13 ± 0.34
L19A	-0.737 ± 0.29
L19Q	-0.991 ± 0.24
L19K	-0.999 ± 0.16
L19T	-0.844 ± 0.19
L19E	-0.917 ± 0.23
L19V	-0.656 ± 0.1
L19M	0.144 ± 0.095
L19R	-1.07 ± 0.13
L19N	-0.658 ± 0.36
R13E	-0.354 ± 0.1
R13C	-0.333 ± 0.18
R13L	-0.108 ± 0.12
R13N	-0.265 ± 0.21
R13Y	-0.079 ± 0.25
R13W	-0.213 ± 0.072

Variant	abundance fitness
R13M	-0.153 ± 0.37
R13G	0.023 ± 0.04
R13A	0.096 ± 0.1
R13D	0.391 ± 0.15
R13V	-0.443 ± 0.073
R13Q	-0.398 ± 0.16
R13T	-0.056 ± 0.065
R13K	0.1 ± 0.079
R13S	-0.137 ± 0.083
S10H	-1.1 ± 0.48
S10W	-0.018 ± 0.061
S10E	-0.758 ± 0.14
S10V	-0.167 ± 0.06
S10A	-0.095 ± 0.065
S10P	0.135 ± 0.074
S10R	-0.395 ± 0.081
S10I	-0.229 ± 0.11
S10K	-0.317 ± 0.19
S10L	-0.007 ± 0.074
S10Y	-0.567 ± 0.13
S10F	0.099 ± 0.062
S10D	-0.224 ± 0.22
S10C	0.208 ± 0.13
S10T	0.136 ± 0.069
S10Q	-0.419 ± 0.13

Variant	abundance fitness
V5P	-0.442 ± 0.22
V5S	-0.023 ± 0.086
V5I	-0.044 ± 0.08
V5W	0.086 ± 0.13
V5M	0.125 ± 0.055
V5K	0.318 ± 0.25
V5D	-0.156 ± 0.11
V5A	0.161 ± 0.048
V5E	-0.486 ± 0.12
V5T	0.094 ± 0.078
V5R	-0.041 ± 0.08
V5L	0.035 ± 0.1
V5Q	-0.093 ± 0.05
V5G	0.22 ± 0.06
T18D	-0.806 ± 0.16
T18A	0.176 ± 0.087
T18K	-0.056 ± 0.13
T18C	-0.143 ± 0.1
T18H	-0.463 ± 0.37
T18G	-0.237 ± 0.077
T18S	-0.133 ± 0.076
T18L	-0.247 ± 0.076
T18Y	0.508 ± 0.29
T18E	-0.223 ± 0.072
T18N	-0.514 ± 0.23

Variant	abundance fitness
T18W	0.472 ± 0.073
T18V	-0.038 ± 0.1
T18M	-0.06 ± 0.067
T18R	-0.222 ± 0.086
T4F	-0.124 ± 0.057
T4A	-0.087 ± 0.057
T4E	0.223 ± 0.053
T4K	-0.15 ± 0.058
T4D	0.178 ± 0.091
T4S	0.109 ± 0.029
T4Y	-0.139 ± 0.058
T4N	0.308 ± 0.045
T4P	-0.102 ± 0.049
T4G	0.085 ± 0.046
T4R	-0.256 ± 0.043
T4W	0.033 ± 0.062
T4V	-0.319 ± 0.05
T4L	-0.318 ± 0.045
T4H	-0.406 ± 0.077
T4Q	0.119 ± 0.056
T4M	-0.077 ± 0.065
T4I	-0.23 ± 0.079
T4C	0.079 ± 0.055
R8W	0.02 ± 0.086
R8H	-0.198 ± 0.33

Variant	abundance fitness
R8K	0.295 ± 0.055
R8E	-0.494 ± 0.085
R8Q	0.057 ± 0.087
R8L	0.317 ± 0.041
R8V	0.26 ± 0.063
R8D	-0.271 ± 0.13
R8A	0.334 ± 0.083
R8T	0.005 ± 0.079
R8G	0.097 ± 0.046
R8P	-0.092 ± 0.047
R8C	0.282 ± 0.056
R8Y	0.048 ± 0.07
R8M	0.284 ± 0.066
R8N	-0.31 ± 0.36
R8I	0.37 ± 0.076
R8S	0.12 ± 0.04
Y9L	0.063 ± 0.098
Y9V	0.019 ± 0.059
Y9M	0.163 ± 0.048
Y9G	0.245 ± 0.042
Y9A	-0.119 ± 0.08
Y9T	-0.201 ± 0.11
Y9K	-0.056 ± 0.073
Y9C	0.123 ± 0.091
Y9P	0.129 ± 0.11

Variant	abundance fitness
Y9I	0.156 ± 0.16
Y9Q	-0.446 ± 0.15
Y9S	0.055 ± 0.06
Y9E	-0.858 ± 0.19
Y9R	-0.27 ± 0.054
Y9W	0.076 ± 0.06
Y9N	0.091 ± 0.34
M15F	-0.095 ± 0.18
M15P	-0.993 ± 0.26
M15G	-0.736 ± 0.076
M15V	0.215 ± 0.057
M15S	-0.908 ± 0.24
M15A	-0.044 ± 0.078
M15R	-1.09 ± 0.15
M15L	0.265 ± 0.074
M15W	0.229 ± 0.054
M15E	-1.09 ± 0.17
M15T	-0.455 ± 0.095
M15Q	-1.09 ± 0.36
F6C	-0.842 ± 0.23
F6E	-0.161 ± 0.12
F6A	-0.241 ± 0.088
F6I	-0.044 ± 0.095
F6D	-0.474 ± 0.33
F6Q	-0.402 ± 0.18

Variant	abundance fitness
F6R	-0.601 ± 0.072
F6H	-0.541 ± 0.29
F6K	-0.442 ± 0.26
F6P	-0.227 ± 0.061
F6V	-0.107 ± 0.084
F6S	-0.215 ± 0.064
F6T	-0.352 ± 0.096
F6N	-0.451 ± 0.12
F6G	-0.168 ± 0.061
F6Y	-0.69 ± 0.14
F6M	-0.443 ± 0.13
F6L	-0.242 ± 0.073
F12V	0.047 ± 0.067
F12W	0.017 ± 0.075
F12E	-0.941 ± 0.23
F12I	0.068 ± 0.14
F12G	-0.597 ± 0.083
F12K	-1.08 ± 0.25
F12C	-0.164 ± 0.11
F12Y	-0.469 ± 0.17
F12M	-0.103 ± 0.14
F12T	-0.907 ± 0.45
F12R	-0.921 ± 0.13
F12A	-0.271 ± 0.12
F12S	-0.642 ± 0.11

Variant	abundance fitness
E1V	-0.846 ± 0.21
E1D	-0.001 ± 0.12
E1N	-0.153 ± 0.42
E1L	-0.75 ± 0.38
E1W	-0.421 ± 0.27
E1G	-0.62 ± 0.39
E1K	-0.26 ± 0.14
E1M	-0.343 ± 0.48
T2E	-0.18 ± 0.24
T2I	0.085 ± 0.12
T2C	-0.5 ± 0.47
T2A	-0.687 ± 0.3
T2L	0.274 ± 0.19
T2Q	-0.541 ± 0.27
T2S	-0.523 ± 0.12
T2N	-0.286 ± 0.14
T2G	-0.721 ± 0.28
T2Y	-0.352 ± 0.42
T2M	-0.538 ± 0.09
T2P	0.047 ± 0.094
T2W	-0.146 ± 0.096
T2V	-0.165 ± 0.14
T2K	-0.409 ± 0.14
K20R	-0.211 ± 0.059
K20H	-0.421 ± 0.41

Variant	abundance fitness
K20C	-0.574 ± 0.27
K20N	-1.01 ± 0.24
K20Y	-1 ± 0.26
K20Q	-0.411 ± 0.17
K20V	-0.853 ± 0.096
K20G	-0.676 ± 0.11
K20P	-0.904 ± 0.21
K20W	-0.734 ± 0.18
K20L	-0.671 ± 0.097
K20M	-0.746 ± 0.15
K20D	-0.945 ± 0.24
K20A	-0.632 ± 0.1
K20E	-1.02 ± 0.19
W3T	-0.432 ± 0.24
W3E	-0.088 ± 0.13
W3G	0.039 ± 0.072
W3N	-0.024 ± 0.13
W3F	0.086 ± 0.15
W3K	-0.051 ± 0.092
W3S	-0.152 ± 0.13
W3L	-0.45 ± 0.087
W3Y	-0.424 ± 0.22
W3Q	-0.771 ± 0.24
W3R	-0.232 ± 0.06
W3I	-0.655 ± 0.18

Variant	abundance fitness
W3M	-0.274 ± 0.094
W3D	-0.022 ± 0.12
W3C	-0.761 ± 0.39
W3A	-0.66 ± 0.14
W3V	-0.521 ± 0.19
E14M	-0.41 ± 0.092
E14D	-0.159 ± 0.18
E14C	-0.319 ± 0.2
E14G	-0.183 ± 0.063
E14A	-0.318 ± 0.097
E14T	-0.597 ± 0.22
E14Q	-0.534 ± 0.14
E14S	-0.229 ± 0.064
E14F	-0.433 ± 0.22
E14L	-0.429 ± 0.07
E14I	-0.867 ± 0.22
E14W	-0.69 ± 0.094
E14P	-0.589 ± 0.25
E14H	0.13 ± 0.19
E14N	-0.556 ± 0.15
E14V	-0.299 ± 0.066
K22I	0.069 ± 0.095
K22E	-0.77 ± 0.3
K22C	-0.222 ± 0.12
K22D	-0.907 ± 0.37

Variant	abundance fitness
K22A	-0.168 ± 0.09
K22G	-0.454 ± 0.072
K22L	0.127 ± 0.055
R11W	0.205 ± 0.066
R11N	-0.122 ± 0.3
R11V	0.246 ± 0.18
R11E	-0.487 ± 0.081
R11G	-0.03 ± 0.042
R11P	-0.133 ± 0.13
R11A	0.206 ± 0.12
R11M	0.423 ± 0.19
R11C	0.166 ± 0.13
R11S	0.09 ± 0.083
R11H	-0.112 ± 0.13
R11Y	-0.154 ± 0.29
R11T	-0.096 ± 0.084
R11L	-0.059 ± 0.06
R11D	-0.231 ± 0.17
R7N	-0.131 ± 0.14
R7K	0.227 ± 0.069
R7H	0.225 ± 0.23
R7M	-0.04 ± 0.092
R7S	0.141 ± 0.077
R7Q	0.164 ± 0.097
R7G	0.186 ± 0.045

Variant	abundance fitness
R7F	0.078 ± 0.11
R7V	-0.042 ± 0.056
R7L	-0.025 ± 0.068
R7T	-0.02 ± 0.14
R7A	0.022 ± 0.078
R7C	0.084 ± 0.14
R7P	-0.161 ± 0.14
L21I	-0.379 ± 0.27
L21Y	-0.477 ± 0.18
L21G	-0.028 ± 0.031
L21K	0.339 ± 0.077
L21Q	0.159 ± 0.16
L21R	0.163 ± 0.056
L21H	0.112 ± 0.094
L21E	0.352 ± 0.062
L21A	0.356 ± 0.075
L21D	0.101 ± 0.11
L21T	-0.079 ± 0.13
L21V	0.114 ± 0.054
L21M	0.147 ± 0.096
L21N	-0.289 ± 0.25
L21S	0.254 ± 0.06
L21C	-0.131 ± 0.077
L21F	-0.559 ± 0.19

Variants of: B2
Test: as above
Settings: Homo sapiens

Variant	abundance fitness
V23D	0.079 ± 0.077
V23H	0.092 ± 0.082
K40S	0.119 ± 0.086
C28L	-0.886 ± 0.062
C8M	-1.21 ± 0.11
D1P	-0.32 ± 0.1
L15R	0.07 ± 0.052
S19D	-0.078 ± 0.072
V24G	-0.255 ± 0.052
S22E	0.006 ± 0.056

From the Human Domainome abundance scans (Beltran et al. 2025)
